Biological target: CA_(E180A) and CA_(E187A)
Experiment: co-sedimentation

## MxB_(1–35)-MBPdi (from UniProt P20592 1-35)
  binding as percent of WT CA tubes: 73 to 83 % of WT

From publication PMC7183857
